Experimental data reported in US20110059504A1.

T1: human myostatin (human) (UniProt O14793)
T1 sequence (biotinylated in selections and radioactive assays (site not stated), looked up): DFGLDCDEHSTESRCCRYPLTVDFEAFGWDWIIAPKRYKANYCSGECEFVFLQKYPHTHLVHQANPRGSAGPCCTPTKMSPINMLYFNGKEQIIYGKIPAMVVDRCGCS


Experiments:
human myostatin (human) [1] = target: T1, human myostatin (human); test: cell-based or functional assay
human myostatin (human) [2] = target: T1, human myostatin (human)

Row | MPC-11 cell proliferation assay, IC50 (human myostatin (human) [1]) [nM] | EC50 (read off the curve); blocking of myostatin-induced inhibition of MPC-11 proliferation (human myostatin (human) [2]) [nM] | Binder
1 | 150 to 200 |  | M56, E. coli-produced (designed binder) MTIPEIIIKVRGTQVVGSDMTVIVEFSNPFKETLRNVWVHLDGPGVTRPMKKMFSEIRPNSTVQWEEVVRPWVSGHRKLIARCSLSPWHVYGELDVQIQRRHHHHHH
2 | 150 to 200 |  | M71, E. coli-produced (designed binder) MTIPEIIIKVRGTQVVGSDMTVIVEFTNPFKETLRSVWVHLDGPGVTRPMKKMFSEIRPNSTVQWEEVVRPWVSGHRKLIARCSLSPWHVYGELDVQIQRRHHHHHH
3 | 150 to 200 |  | M07, E. coli-produced (designed binder) MTIPEIIIKVRGTQVVGSDMTVIVEFTNPFKETLRSVWVHLDGPGVTRPMKKMFREIPPKTTVQWEEVVRPWVSGHRKLIARCQLLPWHVYGELDVQIQRRHHHHHH
4 |  | 30 | M3-1, E. coli-produced (designed binder) MTIPEIIIKVRGTQVVGSDMTVIVEFTNPLKETLRNVWVHLDGPGVTRPMKKMFRAIPMNHKVQWEEVVRPWVSGHRKLIASMPQLFHIHVYGELDVQIQRRHHHHHH
